Laboratory results: paper PMC4682817, “The Cardiac Stress Response Factor Ms1 Can Bind to DNA and Has a Function in the Nucleus”

Experiments:
[1] = biological target: T1, Ms1 270-375 (AT-hook + ABD2) (rat, UniProt Q8K4K7 270-375); test: fluorescence titration (intrinsic Trp); settings: EMSA buffer: 20 mM phosphate, 100 mM NaCl, 0.01% Triton X-100, pH 7.5, room temperature; fluorescence and NMR buffers not given in the material
T1 sequence: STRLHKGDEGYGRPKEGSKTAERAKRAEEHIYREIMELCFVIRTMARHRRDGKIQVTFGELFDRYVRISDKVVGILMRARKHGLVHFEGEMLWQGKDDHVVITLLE

[2] = biological target: T1, Ms1 270-375 (AT-hook + ABD2); test: fluorescence titration (intrinsic Trp); EMSA buffer: 20 mM phosphate, 100 mM NaCl, 0.01% Triton X-100, pH 7.5, room temperature; fluorescence and NMR buffers not given in the material; settings: protein: recombinant; tags: N-terminal TEV-cleavable poly-His (pLEICS-07)
[3] = biological target: T1, Ms1 270-375 (AT-hook + ABD2); test: NMR titration; shifts in AT-hook only; 1:0.5 to 1:2; EMSA buffer: 20 mM phosphate, 100 mM NaCl, 0.01% Triton X-100, pH 7.5, room temperature; fluorescence and NMR buffers not given in the material; settings: protein: recombinant; tags: N-terminal TEV-cleavable poly-His (pLEICS-07); self-complementary

scrambled oligo
Kd [1]: 31 µM

B1: wt oligo (dsDNA)
DNA 1: GACACAAACACAATAG
DNA 2: CTATTGTGTTTGTGTC
Kd [2]: 8.2 ± 1 µM

B2: A7G oligo (dsDNA)
DNA 1: GACACAGACACAATAG
DNA 2: CTATTGTGTCTGTGTC
Kd [2]: 32 ± 5 µM

B3: AT-hook oligo (dsDNA)
DNA 1: CGAATTAATTCG
DNA 2: CGAATTAATTCG
binding result [3]: binds
